Assay results reported in publication PMC3136518, “Single-Molecule Fluorescence Polarization Study of Conformational Change in Archaeal Group II Chaperonin” (PLoS ONE, 2011).

Target: the molecule itself
Assay: rotary-shadowing electron microscopy; chaperonin (50 µg/mL) directly immobilised on plasma-cleaned coverslip, washed with HKM buffer [25 mM HEPES-KOH (pH 7.4), 100 mM KCl, 5 mM MgCl2] and 50% glycerol, shadowed at 5° with platinum and carbon; coverslip without chaperonin as negative control

B1: αD263C/Q271C/C366S-His, the double-cysteine mutant of Thermococcus sp. strain KS-1 (T. KS-1) α chaperonin with internal hexahistidine tags (complex, UniProt P61112 1-548, looked up)
chain: MAQLSGQPVVILPEGTQRYVGRDAQRLNILAARIIAETVRTTLGPKGMDKMLVDSLGDIVVTNDGATILDKIDLQHPAAKMMVEVAKTQDKEAGDGTTTAVVIAGELLRKAEELLDQNIHPSIIIKGYALAAEKAQEILDEIAIRVDPDDEETLLKIAATSITGKNAESHKELLAKLAVEAVKQVAEKKDGKYVVDLDNIKFEKKAGEGVEESELVRGVVIDKEVVHPRMPKRVENAKIALINEALEVKKTETDAKINITSPCQLMSFLECEEKMLKDMVDHIAQTGANVVFVQKGIDDLAQHYLAKYGIMAVRRVKKSDMEKLAKATGAKIVTNVKDLTPEDLGYAEVVEERKLAGENMIFVEGSKNPKAVTILIRGGTEHVIDEVERALEDAVKVVKDVMEDGAVLPAGGAPEIELAIRLDEYAKQVGGKEALAIENFADALKIIPKTLAENAGLDTVEMLVKVISEHKNRGLGIGIDVFEGKPADMLEKGIIEPLRVKKQAIKSASEAAIMILRIDDVIAAKATKPEGGQGGGMPGGMGGMDMGM
notes: Group II chaperonin (thermosome) α subunit of Thermococcus sp. strain KS-1, amino acids 1-548, the entire α subunit amplified from plasmid pK1Eα2; hexa-histidine inserted between Val146 and Asp147; Homo-oligomeric double ring; The results call the sample of the electron microscopy BSR-CPN (cysteines 263 and 271 cross-linked by BSR, about 0.3 dye per hexadecamer); the methods name the unlabelled …
binding result: binds
